Here are results for 5 sequences from the supplement of paper PMC5998384.

The test system of series [1] is HeLa Kyoto. The experiment in a line: solubility in G1/S (NP-40 vs SDS abundance) (log2 ratio); higher = more soluble. The conditions noted are these: cell cycle stage: G1/S.
In series [2] the test system is HeLa Kyoto. The experiment in a line: melting temperature (median over replicates), in situ; higher = more thermally stable.
For series [3], the system named is HeLa Kyoto. Nature of the series: solubility change mitosis vs G1/S (difference of NP-40 vs SDS log2 ratios) (log2 ratio difference); higher = more soluble in mitosis.
In series [4] the test system is HeLa Kyoto. Nature of the series: thermal stability score vs G1/S (z-score of summed log2 fold changes over temperatures); higher = more thermally stable than in G1/S.
Where [5] appears, read: cell cycle stage: early G1 (4.5 h after nocodazole release).
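For melting temperature (median over replicates), in situ in this document: HeLa Kyoto cells synchronized by double thymidine or nocodazole block, proteins quantified by TMT10plex mass spectrometry, three independent biological replicates.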
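For solubility change mitosis vs G1/S (difference of NP-40 vs SDS log2 ratios) in this document: synchronized HeLa Kyoto cells (double thymidine block for G1/S, nocodazole release for mitosis), protein amounts in NP-40 versus SDS lysates quantified by mass spectrometry, three biological replicates.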
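For solubility in G1/S (NP-40 vs SDS abundance) in this document: HeLa Kyoto cells arrested at G1/S by double thymidine block, proteins quantified by TMT10plex mass spectrometry in mild NP-40 versus SDS extracts, three biological replicates.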
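For thermal stability score vs G1/S (z-score of summed log2 fold changes over temperatures) in this document: synchronized HeLa Kyoto cells, proteins quantified by TMT10plex mass spectrometry, three biological replicates, mitosis taken 0.5 h after nocodazole release, G1/S directly after double thymidine block.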

Take “MSAGEVERLVSELSGGTGGDEEEEWLYGGPWDVHVHSDLAKDLDENEVERPEEENASANPPSGIEDETAENGVPKPKVTETEDDSDSDSDDDEDDVHVTIGDIKTGAPQYGSYGTAPVNLNIKTGGRVYGTTGTKVKGVDLDAPGSINGVPLLEVDLDSFEDKPWRKPGADLSDYFNYGFNEDTWKAYCEKQKRIRMGLEVIPVTSTTNKITAEDCTMEVTPGAEIQDGRFNLFKVQQGRTGNSEKETALPSTKAEFTSPPSLFKTGLPPSRNSTSSQSQTSTASRKANSSVGKWQDRYGRAESPDLRRLPGAIDVIGQTITISRVEGRRRANENSNIQVLSERSATEVDNNFSKPPPFFPPGAPPTHLPPPPFLPPPPTVSTAPPLIPPPGFPPPPGAPPPSLIPTIESGHSSGYDSRSARAFPYGNVAFPHLPGSAPSWPSLVDTSKQWDYYARREKDRDRERDRDRERDRDRDRERERTRERERERDHSPTPSVFNSDEERYRYREYAERGYERHRASREKEERHRERRHREKEETRHKSSRSNSRRRHESEEGDSHRRHKHKKSKRSKEGKEAGSEPAPEQESTEATPAE [FIP1L1]”: in the series on HeLa Kyoto [1], the “solubility in G1/S (log2)” value is -0.594. Moreover, the melting temperature turned out to be 48.8 °C in the series on HeLa Kyoto [2] (cell cycle stage: G1/S) and 49.9 °C in the series on HeLa Kyoto [2] (cell cycle stage: mitosis). Besides, the “solubility change mitosis (log2)” value in the series with HeLa Kyoto [3] came to 0.265. For the same sequence, the figures for the thermal stability score with HeLa Kyoto [4] (setting [5]) and with HeLa Kyoto [4] (cell cycle stage: mitosis) were 0.669 and 2.71, respectively.
As for “MSAIPAEESDQLLIRPLGAGQEVGRSCIILEFKGRKIMLDCGIHPGLEGMDALPYIDLIDPAEIDLLLISHFHLDHCGALPWFLQKTSFKGRTFMTHATKAIYRWLLSDYVKVSNISADDMLYTETDLEESMDKIETINFHEVKEVAGIKFWCYHAGHVLGAAMFMIEIAGVKLLYTGDFSRQEDRHLMAAEIPNIKPDILIIESTYGTHIHEKREEREARFCNTVHDIVNRGGRGLIPVFALGRAQELLLILDEYWQNHPELHDIPIYYASSLAKKCMAVYQTYVNAMNDKIRKQININNPFVFKHISNLKSMDHFDDIGPSVVMASPGMMQSGLSRELFESWCTDKRNGVIIAGYCVEGTLAKHIMSEPEEITTMSGQKLPLKMSVDYISFSAHTDYQQTSEFIRALKPPHVILVHGEQNEMARLKAALIREYEDNDEVHIEVHNPRNTEAVTLNFRGEKLAKVMGFLADKKPEQGQRVSGILVKRNFNYHILSPCDLSNYTDLAMSTVKQTQAIPYTGPFNLLCYQLQKLTGDVEELEIQEKPALKVFKNITVIQEPGMVVLEWLANPSNDMYADTVTTVILEVQSNPKIRKGAVQKVSKKLEMHVYSKRLEIMLQDIFGEDCVSVKDDSILSVTVDGKTANLNLETRTVECEEGSEDDESLREMVELAAQRLYEALTPVH [CPSF3]”, the “solubility in G1/S (log2)” value in the series on HeLa Kyoto [1] is -0.183. Also, the values for the melting temperature in the series on HeLa Kyoto [2] (cell cycle stage: G1/S) and in the series on HeLa Kyoto [2] (cell cycle stage: mitosis) were 51.2 °C and 50.5 °C, respectively. Besides, the “solubility change mitosis (log2)” value in the series on HeLa Kyoto [3] was -0.00173. For the same sequence, the thermal stability score in the series with HeLa Kyoto [4] (setting [5]) came out at 0.918; in the series on HeLa Kyoto [4] (cell cycle stage: mitosis), 1.38.
As to “MSALLRLLRTGAPAAACLRLGTSAGTGSRRAMALYHTEERGQPCSQNYRLFFKNVTGHYISPFHDIPLKVNSKEENGIPMKKARNDEYENLFNMIVEIPRWTNAKMEIATKEPMNPIKQYVKDGKLRYVANIFPYKGYIWNYGTLPQTWEDPHEKDKSTNCFGDNDPIDVCEIGSKILSCGEVIHVKILGILALIDEGETDWKLIAINANDPEASKFHDIDDVKKFKPGYLEATLNWFRLYKVPDGKPENQFAFNGEFKNKAFALEVIKSTHQCWKALLMKKCNGGAINCTNVQISDSPFRCTQEEARSLVESVSSSPNKESNEEEQVWHFLGK [PPA2]”, in the series on HeLa Kyoto [1], the “solubility in G1/S (log2)” value turned out to be 0.442. Moreover, the values for the melting temperature in the series on HeLa Kyoto [2] (cell cycle stage: G1/S) and with HeLa Kyoto [2] (cell cycle stage: mitosis) were 54.8 °C and 55.1 °C, respectively. For the same sequence, the “solubility change mitosis (log2)” value with HeLa Kyoto [3] is 0.0395. The thermal stability score is -1.33 with HeLa Kyoto [4] (setting [5]) and -2 in the series with HeLa Kyoto [4] (cell cycle stage: mitosis).
On to “MSAQAQMRALLDQLMGTARDGDETRQRVKFTDDRVCKSHLLDCCPHDILAGTRMDLGECTKIHDLALRADYEIASKERDLFFELDAMDHLESFIAECDRRTELAKKRLAETQEEISAEVSAKAEKVHELNEEIGKLLAKAEQLGAEGNVDESQKILMEVEKVRAKKKEAEEEYRNSMPASSFQQQKLRVCEVCSAYLGLHDNDRRLADHFGGKLHLGFIQIREKLDQLRKTVAEKQEKRNQDRLRRREEREREERLSRRSGSRTRDRRRSRSRDRRRRRSRSTSRERRKLSRSRSRDRHRRHRSRSRSHSRGHRRASRDRSAKYKFSRERASREESWESGRSERGPPDWRLESSNGKMASRRSEEKEAGEI [LUC7L]”, for which the “solubility in G1/S (log2)” value with HeLa Kyoto [1] was -0.598. The values for the melting temperature in the series on HeLa Kyoto [2] (cell cycle stage: G1/S) and in the series on HeLa Kyoto [2] (cell cycle stage: mitosis) were 50.1 °C and 51.4 °C, respectively. Also, the “solubility change mitosis (log2)” value with HeLa Kyoto [3] worked out at 0.353. For the same sequence, the figures for the thermal stability score in the series on HeLa Kyoto [4] (setting [5]) and with HeLa Kyoto [4] (cell cycle stage: mitosis) were 1.93 and 1.87, respectively.
On to “MSAQAQMRAMLDQLMGTSRDGDTTRQRIKFSDDRVCKSHLLNCCPHDVLSGTRMDLGECLKVHDLALRADYEIASKEQDFFFELDAMDHLQSFIADCDRRTEVAKKRLAETQEEISAEVAAKAERVHELNEEIGKLLAKVEQLGAEGNVEESQKVMDEVEKARAKKREAEEVYRNSMPASSFQQQKLRVCEVCSAYLGLHDNDRRLADHFGGKLHLGFIEIREKLEELKRVVAEKQEKRNQERLKRREEREREEREKLRRSRSHSKNPKRSRSREHRRHRSRSMSRERKRRTRSKSREKRHRHRSRSSSRSRSRSHQRSRHSSRDRSRERSKRRSSKERFRDQDLASCDRDRSSRDRSPRDRDRKDKKRSYESANGRSEDRRSSEEREAGEI [LUC7L2]”, for which the “solubility in G1/S (log2)” value in the series on HeLa Kyoto [1] was -0.803. The melting temperature in the series with HeLa Kyoto [2] (cell cycle stage: G1/S) is 48.6 °C; in the series on HeLa Kyoto [2] (cell cycle stage: mitosis) it was 50.7 °C. The “solubility change mitosis (log2)” value in the series with HeLa Kyoto [3] is 0.251. For the same sequence, the thermal stability score is 2.1 with HeLa Kyoto [4] (setting [5]) and 3.71 in the series with HeLa Kyoto [4] (cell cycle stage: mitosis).
